Starred links: 1 amine or outer side, 2 acyl side, 3 side chain; linkers in the order of their positions; H or OH if unused. Positions of bridges follow the written chain, without caps; N, C: chain ends. Non-standard residues stand in square brackets, D forms with d. Primed or numbered codes have the meaning given here. YaeCOpipzaa = 2-amino-3-(4-(2-(4-(carboxymethyl)piperazine-1-carboxamido)ethoxy)phenyl)propanoic acid, O=C(NCCOc1ccc(C[C@H](N[*:1])C(=O)[*:2])cc1)N1CCN(CC(=O)[*:3])CC1; F4amCOpipzaa = 2-amino-3-(4-((4-(carboxymethyl)piperazine-1-carboxamido)methyl)phenyl)propanoic acid, O=C(NCc1ccc(C[C@H](N[*:1])C(=O)[*:2])cc1)N1CCN(CC(=O)[*:3])CC1; F4aaopipzaa = 2-amino-3-(4-(2-(4-(carboxymethyl)piperazin-1-yl)-2-oxoethoxy)phenyl)propanoic acid, O=C(COc1ccc(C[C@H](N[*:1])C(=O)[*:2])cc1)N1CCN(CC(=O)[*:3])CC1; Thr(Me) = O-methyl threonine, (3R)-2-amino-3-methoxybutanoic acid, CO[C@H](C)[C@H](N[*:1])C(=O)[*:2]; F4aao = 4-(carboxymethoxy)-L-phenylalanine, O=C([C@H](Cc1ccc(OCC(=O)[*:3])cc1)N[*:1])[*:2]; MeHseMe(6) = (2S)-4-methoxy-2-(methylamino)butanoic acid, COCC[C@@H](C(=O)[*:2])N(C)[*:1]; MeHseMe = N-methyl-O-methyl-L-homoserine, COCC[C@@H](C(=O)[*:2])N(C)[*:1]; Thr(Me)(3) = TMe, O-methyl-L-threonine, CO[C@H](C)[C@H](N[*:1])C(=O)[*:2]; Phe(4-(1-Me-pyrazol-4-yl)) = Cn1cc(-c2ccc(C[C@H](N)C(=O)O)cc2)cn1; DOTA‑Lu(3) = DOTA chelate with cold lutetium-175, amide-linked; TMe = O-methyl-L-threonine, CO[C@H](C)[C@H](N[*:1])C(=O)[*:2]; NMeAla(isoquinolin-7-yl) = CN[C@@H](Cc1ccc2ccncc2c1)C(=O)O; 3Pal(6-Ph) = N[C@@H](Cc1ccc(-c2ccccc2)nc1)C(=O)O; Phe(4-COOH) = N[C@@H](Cc1ccc(C(=O)O)cc1)C(=O)O; NMe2Nal = CN[C@@H](Cc1ccc2ccccc2c1)C(=O)O; NMeI = CC[C@H](C)[C@H](NC)C(=O)O; NMeQ = CN[C@@H](CCC(N)=O)C(=O)O; NMeK = CN[C@@H](CCCCN)C(=O)O; NMeC = CN[C@@H](CS)C(=O)O
B1: Macrocyclic peptide of Example 2-20 (SEQ ID No. 38) (peptide)
peptide: {CH2CO}-[NMeQ][MeHseMe]D[NMeQ][Phe(4-COOH)][Thr(Me)]I[F4amCOpipzaa][NMe2Nal]G[3Pal(6-Ph)][NMeC]-NH2
modifications: thioether N-12
SMILES: CC[C@H](C)[C@@H]1NC(=O)[C@H]([C@@H](C)OC)NC(=O)[C@H](Cc2ccc(C(=O)O)cc2)NC(=O)[C@H](CCC(N)=O)N(C)C(=O)[C@H](CC(=O)O)NC(=O)[C@H](CCOC)N(C)C(=O)[C@H](CCC(N)=O)N(C)C(=O)CSC[C@@H](C(N)=O)N(C)C(=O)[C@H](Cc2ccc(-c3ccccc3)nc2)NC(=O)CNC(=O)[C@H](Cc2ccc3ccccc3c2)N(C)C(=O)[C@H](Cc2ccc(CNC(=O)N3CCN(CC(=O)O)CC3)cc2)NC1=O
B2: Lu-C-42 (peptide)
peptide: {CH2CO}-K[NMeI]D[NMeQ][Phe(4-COOH)]II[F4aao][NMeAla(isoquinolin-7-yl)]G[3Pal(6-Ph)][NMeC]-NH2
modifications: thioether N-12; not fully specified (residue 1); also: DOTA-Lu: cold Lu-175 complex
B3: Macrocyclic peptide of Example 2-22 (SEQ ID No. 40) (peptide)
peptide: {CH2CO}-[NMeQ][MeHseMe]D[NMeQ][Phe(4-COOH)][Thr(Me)(3)]I[F4aaopipzaa][NMe2Nal]G[3Pal(6-Ph)][NMeC]-NH2
modifications: thioether N-12
SMILES: CC[C@H](C)[C@@H]1NC(=O)[C@H]([C@@H](C)OC)NC(=O)[C@H](Cc2ccc(C(=O)O)cc2)NC(=O)[C@H](CCC(N)=O)N(C)C(=O)[C@H](CC(=O)O)NC(=O)[C@H](CCOC)N(C)C(=O)[C@H](CCC(N)=O)N(C)C(=O)CSC[C@@H](C(N)=O)N(C)C(=O)[C@H](Cc2ccc(-c3ccccc3)nc2)NC(=O)CNC(=O)[C@H](Cc2ccc3ccccc3c2)N(C)C(=O)[C@H](Cc2ccc(OCC(=O)N3CCN(CC(=O)O)CC3)cc2)NC1=O
B4: Lu-C-35 (peptide)
peptide: KQDQFTIFFGXC
modifications: not fully specified; MeK(DOTA-Lu)-MeQ-D-MeQ-F4COO-TMe-I-F4aao-MeNal27N-G-3Py6Ph-MeC-NH2; thioether ring from N-terminal acetyl to MeC12
B5: Lu-C-45 (peptide)
peptide: Ac-[NMeK](DOTA‑Lu(3))[MeHseMe(6)]D[NMeQ][Phe(4-COOH)][TMe]IY[NMeAla(isoquinolin-7-yl)]G[3Pal(6-Ph)][NMeC]-NH2
modifications: bridge N-12; not fully specified (bridges); also: cold Lu-175 chelated by DOTA
B6: Macrocyclic peptide of Example 2-19 (SEQ ID No. 37) (peptide)
peptide: {CH2CO}-[NMeQ][MeHseMe]D[NMeQ][Phe(4-COOH)][Thr(Me)]I[YaeCOpipzaa][NMe2Nal]G[3Pal(6-Ph)][NMeC]-NH2
modifications: thioether N-12
SMILES: CC[C@H](C)[C@@H]1NC(=O)[C@H]([C@@H](C)OC)NC(=O)[C@H](Cc2ccc(C(=O)O)cc2)NC(=O)[C@H](CCC(N)=O)N(C)C(=O)[C@H](CC(=O)O)NC(=O)[C@H](CCOC)N(C)C(=O)[C@H](CCC(N)=O)N(C)C(=O)CSC[C@@H](C(N)=O)N(C)C(=O)[C@H](Cc2ccc(-c3ccccc3)nc2)NC(=O)CNC(=O)[C@H](Cc2ccc3ccccc3c2)N(C)C(=O)[C@H](Cc2ccc(OCCNC(=O)N3CCN(CC(=O)O)CC3)cc2)NC1=O
B7: Macrocyclic peptide of Example 2-18 (SEQ ID No. 36) (peptide)
peptide: {CH2CO}-[NMeQ][MeHseMe]D[NMeQ][Phe(4-COOH)][Thr(Me)(3)]I[F4aao][NMeAla(isoquinolin-7-yl)]G[Phe(4-(1-Me-pyrazol-4-yl))][NMeC]-NH2
modifications: thioether N-12
SMILES: CC[C@H](C)[C@@H]1NC(=O)[C@H]([C@@H](C)OC)NC(=O)[C@H](Cc2ccc(C(=O)O)cc2)NC(=O)[C@H](CCC(N)=O)N(C)C(=O)[C@H](CC(=O)O)NC(=O)[C@H](CCOC)N(C)C(=O)[C@H](CCC(N)=O)N(C)C(=O)CSC[C@@H](C(N)=O)N(C)C(=O)[C@H](Cc2ccc(-c3cnn(C)c3)cc2)NC(=O)CNC(=O)[C@H](Cc2ccc3ccncc3c2)N(C)C(=O)[C@H](Cc2ccc(OCC(=O)O)cc2)NC1=O

The binders below were run against T1, Human Glypican3-Fc (ACRO Biosystems, GP3-H5258) (human, UniProt P51654 25-559) (assay: SPR (Biacore T200), Method B-2: human Glypican3-Fc captured by anti-human Fc on CM3 chip, peptide as analyte).
T1 construct: Bought fusion protein, captured in Methods B-2, B-3 and B-4; Catalogue number is printed only in Method B-2; not shown: Fc part of the bought fusion
Procedure: A CM3 sensor chip (Cytiva) was inserted into a Biacore T200 (Cytiva), primed three times with a running buffer: HBS-P-+, pH 7.4 (Cytiva), and equilibrated at a flow rate of 30 μL/min. Using the Anti-Fc Capture Kit (Cytiva), 50 LL each of 60 mM EDC solution (Cytiva) and 650 mM NHS solution (Cytiva) were mixed, and then reacted at a flow rate of 10 μL/min for 420 seconds, 150 μL of […] Anti-human IgG (Fc) Antibody solution was prepared by diluting with 10 mM acetic acid solution (pH 5.0), reacted at a flow rate of 10 μL/min for 420 seconds, and immobilized on a CM3 sensor chip. After immobilization, 1.0 M ethanolamine aqueous solution (Cytiva) was allowed to react for 420 seconds at a flow rate of 10 μL/min for capping. Human Glypican3-Fc (ACRO Biosystems, GP3-H5258) was allowed to react for 60 seconds at a flow rate of 10 μL/min. After capturing human Glypican3-Fc, a peptide solution prepared to 10 mM in DMSO solution was diluted with a running buffer to a final concentration of 10 μM. […] Using the above samples, peptide kinetics for Glypican3 was obtained by SPR measurement. Kinetics evaluation of Glypican3 was performed by SPR measurements at a flow rate of 10 μL/min. setting the association time to 120 seconds and the disassociation time to 600 seconds.
The obtained data by Method B-1, Method B-2, Method B-3 and Method B-4 were analyzed by follow. Single Cycle Kinetics was used as the kinetics evaluation model, and curve fitting was performed using Biacore T200 Evaluation Software Version 3.0 (Cytiva).

B1 and B2 are within 1.5-fold of each other in Kd: 0.7 nM for the first, 0.67 nM for the second.

Compared with B3, B4 is 2.5-fold higher in Kd: 0.8 nM for the first, 2.03 nM for the second. The first binds more tightly here.

B5 and B6 are within 1.5-fold of each other in Kd: 0.74 nM for the first, 0.5 nM for the second.

B7 was tested, and the Kd was 3.8 nM.

Reference: patent US20260241049A1, “Radiopharmaceutical Compositions Targeting Glypican-3 and Uses Thereof” (RayzeBio, Inc., priority 2023, published 2026)
